Data published in paper PMC8278045.

Tests used:
Experiment in all cases: affinity purification with mass spectrometry; GFP pull-down (µMACS/MultiMACS GFP Isolation Kit beads) from thylakoid membranes of GFP-labelled Syn7942 strains solubilised with 1% digitonin; label-free LC-MS/MS, abundances normalised to GFP, WT strain as control, triplicates
[1] = molecular target: PsbB (CP47) of Photosystem II labelled with enhanced GFP (PSII–GFP) (Synechococcus elongatus PCC 7942) (UniProt P31094)
[2] = molecular target: PsaE of Photosystem I labelled with enhanced GFP (PSI–GFP) (Synechococcus elongatus PCC 7942) (UniProt Q31NL7)
[3] = molecular target: PetA of Cytochrome b6f labelled with enhanced GFP (Cyt b6f–GFP) (Synechococcus elongatus PCC 7942) (UniProt Q31NV8)
Chain of UniProt Q31NV8 (Q31NV8 31-324): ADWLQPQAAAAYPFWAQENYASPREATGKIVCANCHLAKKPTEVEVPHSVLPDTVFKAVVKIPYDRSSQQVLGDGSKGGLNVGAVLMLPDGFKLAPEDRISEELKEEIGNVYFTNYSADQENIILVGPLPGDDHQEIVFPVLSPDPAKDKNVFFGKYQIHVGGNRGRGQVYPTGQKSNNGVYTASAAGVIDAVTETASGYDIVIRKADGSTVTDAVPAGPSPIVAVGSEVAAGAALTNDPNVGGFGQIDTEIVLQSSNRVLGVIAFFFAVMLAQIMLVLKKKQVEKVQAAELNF

Chain of UniProt P31094 (P31094 whole entry): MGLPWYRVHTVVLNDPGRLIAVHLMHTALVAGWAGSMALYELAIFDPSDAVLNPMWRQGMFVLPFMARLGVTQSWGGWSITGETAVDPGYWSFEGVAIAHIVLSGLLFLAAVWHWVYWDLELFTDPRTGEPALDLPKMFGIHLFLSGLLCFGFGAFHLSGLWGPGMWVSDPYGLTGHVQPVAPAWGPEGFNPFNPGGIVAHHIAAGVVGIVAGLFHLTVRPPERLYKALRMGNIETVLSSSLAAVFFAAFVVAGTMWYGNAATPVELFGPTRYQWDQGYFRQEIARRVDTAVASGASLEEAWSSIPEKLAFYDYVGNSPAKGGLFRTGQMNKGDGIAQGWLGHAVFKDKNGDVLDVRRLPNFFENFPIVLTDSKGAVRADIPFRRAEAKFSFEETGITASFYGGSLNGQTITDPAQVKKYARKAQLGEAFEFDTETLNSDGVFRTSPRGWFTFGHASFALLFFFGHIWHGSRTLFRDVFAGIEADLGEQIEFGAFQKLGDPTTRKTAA
Chain of UniProt Q31NL7 (Q31NL7 whole entry): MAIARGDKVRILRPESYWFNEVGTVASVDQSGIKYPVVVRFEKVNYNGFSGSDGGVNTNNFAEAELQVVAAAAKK

## Cytochrome b6f (Cyt b6f) (from UniProt Q31KG3 1-37) (complex)
[1]
  percent of PSII associated with Cyt b6f: 1.98%
[2]
  percent of PSI associated with Cyt b6f: 0.3%

## Photosystem II (PSII) (from UniProt P31094 1-508; Q31M07 29-136; Q31LM9 31-167; Q31LS7 1-40) (complex)
[3]
  percent of Cyt b6f associated with PSII: 2%
[2]
  percent of PSI associated with PSII: 1.72%

## Photosystem I (PSI) (from UniProt P0A421 1-139; P0A402 24-164; P0A426 5-83) (complex)
[1]
  percent of PSII associated with PSI: 9.9%
[3]
  percent of Cyt b6f associated with PSI: 4.1%
